According to patent US11484611B2, “Method for sterilizing biological materials” (FM&G Biomed Co., Ltd., priority 2006, dated 2022):

Assays:
Type in all cases: physicochemical
[1] = Fluorescence intensity of riboflavin solutions under ultraviolet irradiation; conditions: aqueous solution; compared with untreated riboflavin solutions; higher intensity = degradation
Description: Dehydrated riboflavin was untreated, sterilized by autoclave, or sterilized with ozone. Samples were then dissolved in water to prepare six riboflavin solutions, i.e., solution 1 (100 mg/mL, autoclaved), solution 2 (100 mg/mL, ozone-sterilized), solution 3 (100 mg/mL, untreated), solution 4 (50 mg/mL, autoclaved), solution 5 (50 mg/mL, ozone-sterilized), and solution 6 (50 mg/mL, untreated). Fluorescence intensities of the six solutions were observed under ultraviolet irradiation.

[2] = Acrylamide gel electrophoresis of sterilized pepsin and bromelain; conditions: 5% acrylamide gel, Coomassie blue
Description: Samples of two dehydrated enzymes, i.e., pepsin and bromelain, were untreated, sterilized by autoclave, or sterilized with ozone. Subsequently, the samples were dissolved acetate solutions, analyzed by 5% acrylamide gel electrophoresis, and stained with Coomassie blue.

[3] = Molecular property of sterilized collagen by acrylamide gel electrophoresis
Description: Molecular Property of Sterilized Collagen: equivalent amounts of dehydrated collagen were subjected to the following respective treatments: (1) non-treatment; (2) treatment with ozone gas, as described in Example 1; (3) treatment with ultraviolet irradiation for 12 hours; (4) immersion in 75 vol. % ethanol for 4 hours; (5) immersion in 2 vol. % formaldehyde for 1 hour; or (6) autoclave sterilization under high-temperature and high-pressure. Afterwards, each of the samples from the aforementioned treatments was dissolved in acetate solution, analyzed by 5% acrylamide gel electrophoresis, and stained with Coomassie blue.

[4] = Capillary electrochromatography of sterilized hyaluronan; conditions: absorbance at 194 nm, corresponds to amount of hyaluronan
Description: Two equivalent amounts of hyaluronan (average molecular weight: 58 kDa), were respectively subjected to ozone sterilization and autoclave sterilization. Subsequently, the sterilized samples were analyzed by capillary electrochromatography using a fused silica capillary and a 50 mM phosphate buffer (pH 2.99). Separations were carried out at 25 kV and a column temperature of 25° C. Absorbance was detected at 194 nm. Shown in Table 3 below are the areas under the peak for each of the two samples, which correspond to the amount of hyaluronan contained therein. An untreated sample was included as the control.

Cc1cc2nc3c(=O)[nH]c(=O)nc-3n(C[C@H](O)[C@H](O)[C@H](O)CO)c2cc1C [solution 1, riboflavin]
fluorescence intensity under ultraviolet irradiation [1]: higher than those of the untreated control solutions

Cc1cc2nc3c(=O)[nH]c(=O)nc-3n(C[C@H](O)[C@H](O)[C@H](O)CO)c2cc1C [solution 4, riboflavin]
fluorescence intensity under ultraviolet irradiation [1]: higher than those of the untreated control solutions

bromelain
band in electrophoresis gel ([2]; autoclaved): only showed an indistinct band
band in electrophoresis gel ([2]; ozone-treated): the same band as the control

collagen
bands of α1, α2 and β chains in electrophoresis gel ([3]; autoclave sterilization, high-temperature and high-pressure, lane (6)): mostly degraded
bands of α1, α2 and β chains in electrophoresis gel ([3]; immersion in 2 vol. % formaldehyde for 1 hour, lane (5)): showed no bands
bands of α1, α2 and β chains in electrophoresis gel ([3]; immersion in 75 vol. % ethanol for 4 hours, lane (4)): only showed indistinct bands
bands of α1, α2 and β chains in electrophoresis gel ([3]; treated by ozone gas, lane (2), 5% acrylamide gel, Coomassie blue): substantially the same as the control
bands of α1, α2 and β chains in electrophoresis gel ([3]; ultraviolet irradiation for 12 hours, lane (3)): partially polymerized and cleaved

hyaluronan
Area under the Peak ([4]; Autoclaved): 633930
Area under the Peak ([4]; Ozone-treated): 814725

pepsin
band in electrophoresis gel ([2]; autoclaved): a band with substantially reduced stain density
band in electrophoresis gel ([2]; ozone-treated): a single band that was the same as that shown by untreated pepsin
